Drawing on publication PMC3230590, “Structure of the Bro1 Domain Protein BROX and Functional Analyses of the ALIX Bro1 Domain in HIV-1 Budding” (PLoS ONE, 2011), this text covers Kd for 2 molecules.

Test [1] concerns the target CHMP4B 205-224 (Homo sapiens) (UniProt Q9H444). To be noted: cited from earlier work.
Test [2] concerns the target T1, human BROX(1-401) (human, UniProt Q5VW32 1-401).
T1 construct: BROX, human, residues 1-401; lacks the 10 C-terminal residues 402-411 with the farnesylated Cys408; Residues of the vector may remain after TEV cleavage (surmise); also called wild type BROX; recombinant human BROX; not shown: His6, N-terminal, cleaved
T1 sequence (looked up): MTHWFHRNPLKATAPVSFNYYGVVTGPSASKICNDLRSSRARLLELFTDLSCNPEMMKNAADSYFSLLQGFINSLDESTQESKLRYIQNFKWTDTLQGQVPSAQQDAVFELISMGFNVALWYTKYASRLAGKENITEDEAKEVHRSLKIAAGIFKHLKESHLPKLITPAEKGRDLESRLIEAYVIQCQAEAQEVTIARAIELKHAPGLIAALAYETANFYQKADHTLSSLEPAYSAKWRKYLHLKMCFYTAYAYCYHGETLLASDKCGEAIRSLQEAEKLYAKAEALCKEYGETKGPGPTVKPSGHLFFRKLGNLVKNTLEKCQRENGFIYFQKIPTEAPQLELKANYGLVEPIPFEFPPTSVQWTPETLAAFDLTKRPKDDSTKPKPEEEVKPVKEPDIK
Kind of test: SPR; Biacore 2000; CM5 chip with amine-coupled anti-GST antibody capturing GST-CHMP4B(205-224) or GST alone from crude E. coli lysates; pure BROX proteins injected in triplicate, 1.5-fold dilution series from 400 µM; equilibrium responses fit to 1:1 isotherms. To be noted: both partners purified. In general terms: SPR reads the build-up and loss of mass on a sensor chip optically.

For the molecule ALIX Bro1 (from UniProt Q8WUM4), the Kd – broadly, the equilibrium constant for the complex coming apart – in test [1] was 48 µM.

B1: GST-CHMP4B(205-224) (domain or fragment, UniProt Q9H444 205-224, looked up)
chain: KKKEEEDDDMKELENWAGSM
notes: also called C-terminal fragment from CHMP4B; source: E. coli, captured from crude expression lysates on an anti-GST antibody sensor chip
Molecule B1 had a Kd in test [2] of 98 ± 22 µM.
